Assay results as given in the supplement of paper PMC7877785.
± gives the uncertainty stated by the source.

Assay: self-splicing fitness, log relative to wild type (ln ratio); higher = more splicing; Tetrahymena group I intron in knt gene, E. coli kanamycin selection, DiMSum; sequences stand for … in CUCUCU…GGAGGGAAAAGUUAUCAGGCAUGCACCUGGUAGCUAGUCUUUAAACCAAUAGAUUGCAUCGGUUUAAAAGGCAAGACCGUCAAAUUGCGGGAAAGGGGUCAACAGCCGUUCAGUACCAAGUCUCAGGGGAAACUUUGAGAUGGCCUUGCAAAGGGUAUGGUAAUAAGCUGACGGACAUGGUCCUAACCACGCAGCCAAGUCCUAAGUCAACAGAUCUUCUGUUGAUAUGGAUGCAGUUCACAGACUAAAUGUCGGUCGGGGAAGAUGUAUUCUUCUCAUAAGAUAUAGUCGGACCUCUCCUUAAUGGGAGCUAGCGGAUGAAGUGAUGCAACACUGGAGCCGCUGGGAACUAAUUUGUAUGCGAAAGUAUAUUGAUUAGUUUUGGAGUACUCGUGGUCG
Method in brief: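 Pooled colonies went to amplicon sequencing on an Illumina HiSeq 2500 after six replicate transformations. The plates were LB agar with 100 μg/mL carbenicillin, 50 μM IPTG and 0.2% rhamnose, with or without 25 μg/mL kanamycin, incubated overnight at 37°C or 30°C. The E. coli BL21(DE3) library had all eight P1ex-region intron nucleotides randomised, the intron placed in the knt kanamycin-resistance gene on pET-22b(+). DiMSum fitness is the error-weighted combination of replicate fold changes, kanamycin against none, normalised to wild type.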

Sequence	self-splicing fitness (ln) (30 °C)	self-splicing fitness (ln) (37 °C)
CGUAAGCAAUAUUACGGGGA	-3.42 ± 0.22	-1.73 ± 0.14
CGUAAGCAAUAUUACGGGGG	-2.61 ± 0.14	-2.69 ± 0.19
CGUAAGCAAUAUUACGGUAU	-3.71 ± 0.37	-2.56 ± 0.26
CGUAAGCAAUAUUACGGUUC	–	-2.59 ± 0.26
CGUAAGCAAUAUUACGUAAU	-3.23 ± 0.16	-2.64 ± 0.18
CGUAAGCAAUAUUACGUCAA	-2.62 ± 0.26	-1.56 ± 0.24
CGUAAGCAAUAUUACGUCAC	–	-2.59 ± 0.44
CGUAAGCAAUAUUACGUUAA	-3.03 ± 0.23	-2.47 ± 0.29
CGUAAGCAAUAUUACGUUUC	-3.97 ± 0.24	-1.92 ± 0.2
CGUAAGCAAUAUUACGUUUG	-1.2 ± 0.08	-0.438 ± 0.1
CGUAAGCAAUAUUACGUUUU	-4.1 ± 0.18	-3.05 ± 0.19
CGUCAGCAAUAUUACGAAGC	–	-2.3 ± 0.5
CGUCAGCAAUAUUACGACCG	-0.855 ± 0.098	-0.475 ± 0.12
CGUCAGCAAUAUUACGACCU	-0.193 ± 0.13	0.326 ± 0.15
CGUCAGCAAUAUUACGACGC	–	-3.2 ± 0.32
CGUCAGCAAUAUUACGAUCA	-0.722 ± 0.096	0.228 ± 0.12
CGUCAGCAAUAUUACGCACU	-0.336 ± 0.071	0.339 ± 0.079
CGUCAGCAAUAUUACGCCAU	-3.87 ± 0.29	-2.81 ± 0.3
CGUCAGCAAUAUUACGCUUU	-3.76 ± 0.27	-1.66 ± 0.17
CGUCAGCAAUAUUACGGAAU	-4.05 ± 0.37	-2.83 ± 0.21
CGUCAGCAAUAUUACGGAUG	-3.63 ± 0.2	-1.74 ± 0.14
CGUCAGCAAUAUUACGGCAU	-0.76 ± 0.074	-0.608 ± 0.081
CGUCAGCAAUAUUACGGGAA	-3.68 ± 0.43	-1.18 ± 0.18
CGUCAGCAAUAUUACGGGCA	0.0754 ± 0.085	0.572 ± 0.096
CGUCAGCAAUAUUACGUACA	-0.533 ± 0.072	0.154 ± 0.087
CGUCAGCAAUAUUACGUAGU	-2.26 ± 0.12	-1.24 ± 0.13

Sequence	self-splicing fitness (ln) (30 °C)	self-splicing fitness (ln) (37 °C)
CGUCAGCAAUAUUACGUAUC	-3.54 ± 0.19	-2.06 ± 0.19
CGUCAGCAAUAUUACGUCUA	-0.831 ± 0.13	-0.968 ± 0.17
CGUCAGCAAUAUUACGUGUU	-3.17 ± 0.11	-0.86 ± 0.099
CGUGAGCAAUAUUACGACAC	-2.5 ± 0.27	–
CGUGAGCAAUAUUACGACCU	-1.34 ± 0.28	-1.17 ± 0.3
CGUGAGCAAUAUUACGCACC	-1.07 ± 0.23	–
CGUGAGCAAUAUUACGCCGA	–	-1.96 ± 0.41
CGUGAGCAAUAUUACGCCGG	-2.32 ± 0.24	-2.58 ± 0.39
CGUGAGCAAUAUUACGCCGU	–	-1.1 ± 0.25
CGUGAGCAAUAUUACGGAAC	–	-1.28 ± 0.44
CGUGAGCAAUAUUACGGCUA	-1.68 ± 0.14	-1.12 ± 0.14
CGUGAGCAAUAUUACGGGAG	-3.67 ± 0.24	-2.52 ± 0.19
CGUGAGCAAUAUUACGGGCG	-2.93 ± 0.46	-1.63 ± 0.43
CGUGAGCAAUAUUACGGGCU	-1.5 ± 0.18	-2.67 ± 0.39
CGUGAGCAAUAUUACGGGGA	-3.34 ± 0.4	-3.62 ± 0.42
CGUGAGCAAUAUUACGGGUU	-3.99 ± 0.46	-2.65 ± 0.29
CGUGAGCAAUAUUACGUCCC	–	-1.09 ± 0.42
CGUGAGCAAUAUUACGUCCU	–	-1.64 ± 0.32
CGUUAGCAAUAUUACGAACU	-0.929 ± 0.075	0.785 ± 0.11
CGUUAGCAAUAUUACGACAC	-2.43 ± 0.21	-0.891 ± 0.19
CGUUAGCAAUAUUACGACCA	-0.453 ± 0.17	-0.925 ± 0.2
CGUUAGCAAUAUUACGACGA	-1.36 ± 0.19	-1.3 ± 0.19
CGUUAGCAAUAUUACGAUGG	-0.465 ± 0.094	-0.125 ± 0.13
CGUUAGCAAUAUUACGCCAU	–	-1.61 ± 0.2
CGUUAGCAAUAUUACGCCCG	-0.798 ± 0.29	–
CGUUAGCAAUAUUACGCGAG	-2.42 ± 0.29	–

Sequence	self-splicing fitness (ln) (30 °C)	self-splicing fitness (ln) (37 °C)
CGUUAGCAAUAUUACGCGGA	-2.82 ± 0.47	-1.31 ± 0.17
CGUUAGCAAUAUUACGCUUC	–	-2.27 ± 0.36
CGUUAGCAAUAUUACGGACA	-0.317 ± 0.08	0.172 ± 0.1
CGUUAGCAAUAUUACGGACG	-4.39 ± 0.36	-2.23 ± 0.25
CGUUAGCAAUAUUACGGCAG	-0.122 ± 0.1	0.3 ± 0.12
CGUUAGCAAUAUUACGGUGU	-3.37 ± 0.19	-2.29 ± 0.17
CGUUAGCAAUAUUACGUAAA	-2.88 ± 0.22	-1.88 ± 0.26
CGUUAGCAAUAUUACGUACG	-2.89 ± 0.36	-2.09 ± 0.5
CGUUAGCAAUAUUACGUCCA	-2.04 ± 0.41	-1.13 ± 0.48
CGUUAGCAAUAUUACGUCCU	-1.24 ± 0.1	-0.9 ± 0.15
CGUUAGCAAUAUUACGUGGA	-2.98 ± 0.18	-1.68 ± 0.13
CGUUAGCAAUAUUACGUUAC	-2.82 ± 0.32	-2.83 ± 0.43
CGUUAGCAAUAUUACGUUGA	-3.1 ± 0.22	-2.25 ± 0.17
CUAAAGCAAUAUUACGAACG	0.195 ± 0.089	0.868 ± 0.12
CUAAAGCAAUAUUACGACGA	-2.38 ± 0.13	-0.919 ± 0.15
CUAAAGCAAUAUUACGACUG	0.0292 ± 0.098	0.417 ± 0.12
CUAAAGCAAUAUUACGAGGC	-3.6 ± 0.16	-1.92 ± 0.16
CUAAAGCAAUAUUACGAUCA	-2.12 ± 0.18	-0.711 ± 0.22
CUAAAGCAAUAUUACGCGAC	-0.482 ± 0.14	-0.124 ± 0.17
CUAAAGCAAUAUUACGCGCA	-2.92 ± 0.23	-1.64 ± 0.33
CUAAAGCAAUAUUACGCUGA	-3.03 ± 0.18	-2.95 ± 0.29
CUAAAGCAAUAUUACGCUUA	-3.75 ± 0.37	-2.75 ± 0.39
CUAAAGCAAUAUUACGCUUU	-4.2 ± 0.33	-2.35 ± 0.29
CUAAAGCAAUAUUACGGAGG	-1.82 ± 0.1	0.0636 ± 0.12
CUAAAGCAAUAUUACGGCAC	-2.96 ± 0.22	–
CUAAAGCAAUAUUACGGCUC	-3.26 ± 0.4	–

Sequence	self-splicing fitness (ln) (30 °C)	self-splicing fitness (ln) (37 °C)
CUAAAGCAAUAUUACGGGCG	-0.0163 ± 0.069	-0.208 ± 0.081
CUAAAGCAAUAUUACGGGUU	-4.13 ± 0.28	-3.49 ± 0.33
CUAAAGCAAUAUUACGGUAU	-3.53 ± 0.16	-2.58 ± 0.17
CUAAAGCAAUAUUACGGUCA	-2.46 ± 0.18	-1.22 ± 0.2
CUAAAGCAAUAUUACGGUUU	-3.29 ± 0.2	-2.81 ± 0.28
CUAAAGCAAUAUUACGUACA	-2.52 ± 0.14	-0.872 ± 0.18
CUAAAGCAAUAUUACGUGCG	-0.674 ± 0.093	0.0651 ± 0.12
CUAAAGCAAUAUUACGUUCG	0.342 ± 0.064	0.478 ± 0.082
CUAAAGCAAUAUUACGUUGC	-3.49 ± 0.18	-2.45 ± 0.22
CUACAGCAAUAUUACGAAAU	-3.72 ± 0.16	-2.82 ± 0.17
CUACAGCAAUAUUACGAGUC	-3.63 ± 0.24	-3.18 ± 0.38
CUACAGCAAUAUUACGAUAA	-3.02 ± 0.15	-1.49 ± 0.12
CUACAGCAAUAUUACGAUAG	-2.04 ± 0.12	-1.16 ± 0.12
CUACAGCAAUAUUACGAUGG	-1.44 ± 0.053	-0.971 ± 0.077
CUACAGCAAUAUUACGCGCG	-1.36 ± 0.082	-0.796 ± 0.11
CUACAGCAAUAUUACGGCCA	-3 ± 0.28	–
CUACAGCAAUAUUACGGGGA	-3.52 ± 0.26	-1.79 ± 0.16
CUACAGCAAUAUUACGGGGU	-3.62 ± 0.12	-2.34 ± 0.14
CUACAGCAAUAUUACGGGUC	-4.01 ± 0.23	-2.44 ± 0.21
CUACAGCAAUAUUACGGUAC	-2.81 ± 0.13	-1.13 ± 0.18
CUACAGCAAUAUUACGUACC	-3.08 ± 0.41	-1.72 ± 0.43
CUACAGCAAUAUUACGUCGA	-3.59 ± 0.22	-3.7 ± 0.3
CUACAGCAAUAUUACGUCGG	-1.98 ± 0.066	-0.736 ± 0.079
